The target of this experiment is T1, His6-PLCβ2 (phospholipase Cβ2) (UniProt Q00722 1-1185, CPM (thiol-reactive coumarin) on Cys side chains where printed as CPM-PLCβ2; Dabcyl where printed as PLCβ2 with DAB acceptor; unlabelled elsewhere).
T1 construct: phospholipase C β2; called the full length / whole enzyme; printed mass 133.7 kDa; One construct used CPM-labelled, Dabcyl-labelled or unlabelled; also called PLCß2; CPM-PLCβ2; source: Sf9 cells, baculovirus system, purified
The experiment can be described thus: other fluorescence titration; activated Gαq and PLCß2, without γ-synuclein; which partner was labelled is not stated. The settings on record: both partners purified.

T1 sequence (Q00722 whole entry): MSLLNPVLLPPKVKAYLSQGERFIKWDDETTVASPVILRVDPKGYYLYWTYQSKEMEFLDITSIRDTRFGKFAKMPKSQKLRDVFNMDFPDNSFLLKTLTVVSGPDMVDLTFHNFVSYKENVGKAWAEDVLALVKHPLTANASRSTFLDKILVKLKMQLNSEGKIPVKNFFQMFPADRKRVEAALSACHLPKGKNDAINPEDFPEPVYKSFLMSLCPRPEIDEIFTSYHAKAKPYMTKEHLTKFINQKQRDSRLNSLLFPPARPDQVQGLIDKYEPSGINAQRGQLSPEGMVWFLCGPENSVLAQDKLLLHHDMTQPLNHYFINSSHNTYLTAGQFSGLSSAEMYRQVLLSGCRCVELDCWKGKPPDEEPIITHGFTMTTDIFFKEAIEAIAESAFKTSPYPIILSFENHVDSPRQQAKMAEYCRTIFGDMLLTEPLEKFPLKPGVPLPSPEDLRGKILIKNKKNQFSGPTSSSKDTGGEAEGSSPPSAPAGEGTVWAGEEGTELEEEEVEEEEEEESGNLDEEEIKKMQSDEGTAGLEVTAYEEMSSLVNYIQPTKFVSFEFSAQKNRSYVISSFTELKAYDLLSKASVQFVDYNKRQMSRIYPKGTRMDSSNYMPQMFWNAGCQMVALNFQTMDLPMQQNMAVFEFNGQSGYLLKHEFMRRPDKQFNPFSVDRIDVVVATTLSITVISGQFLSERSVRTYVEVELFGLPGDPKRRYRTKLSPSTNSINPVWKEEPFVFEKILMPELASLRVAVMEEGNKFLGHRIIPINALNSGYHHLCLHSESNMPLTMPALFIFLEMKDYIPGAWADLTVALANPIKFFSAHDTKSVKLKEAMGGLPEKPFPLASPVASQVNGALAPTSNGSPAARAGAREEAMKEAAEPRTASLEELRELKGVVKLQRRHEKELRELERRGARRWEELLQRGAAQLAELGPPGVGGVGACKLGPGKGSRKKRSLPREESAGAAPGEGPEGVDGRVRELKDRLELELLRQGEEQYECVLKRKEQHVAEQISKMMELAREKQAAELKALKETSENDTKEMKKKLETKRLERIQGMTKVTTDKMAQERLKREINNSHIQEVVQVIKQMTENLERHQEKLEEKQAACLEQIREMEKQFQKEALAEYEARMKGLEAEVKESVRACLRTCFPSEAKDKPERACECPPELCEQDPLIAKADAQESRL

B1: Gαq(GTPγS) (natural protein, UniProt P50148 1-359, looked up)
chain: MTLESIMACCLSEEAKEARRINDEIERQLRRDKRDARRELKLLLLGTGESGKSTFIKQMRIIHGSGYSDEDKRGFTKLVYQNIFTAMQAMIRAMDTLKIPYKYEHNKAHAQLVREVDVEKVSAFENPYVDAIKSLWNDPGIQECYDRRREYQLSDSTKYYLNDLDRVADPAYLPTQQDVLRVRVPTTGIIEYPFDLQSVIFRMVDVGGQRSERRKWIHCFENVTSIMFLVALSEYDQVLVESDNENRMEESKALFRTIITYPWFQNSSVILFLNKKDLLEEKIMYSHLVDYFPEYDGPQRDAQAAREFILKMFVDLNPDSDKIIYSHFTCATDTENIRFVFAAVKDTILQLNLKEYNLV
notes: source: Sf9 cells, co-expressed with Gβ1 and His6-Gγ2
In turn, B1 displayed a Kd of 0.3 ± 0.2 nM.

Source of the values: article PMC3414502, “γ-Synuclein Interacts with Phospholipase Cβ2 to Modulate G Protein Activation” (PLoS ONE, 2012).
